# T1: cynomolgus monkey RXFP1 (cynomolgus monkey, UniProt H9ERA2 1-757 (rhesus entry))
# T1 sequence: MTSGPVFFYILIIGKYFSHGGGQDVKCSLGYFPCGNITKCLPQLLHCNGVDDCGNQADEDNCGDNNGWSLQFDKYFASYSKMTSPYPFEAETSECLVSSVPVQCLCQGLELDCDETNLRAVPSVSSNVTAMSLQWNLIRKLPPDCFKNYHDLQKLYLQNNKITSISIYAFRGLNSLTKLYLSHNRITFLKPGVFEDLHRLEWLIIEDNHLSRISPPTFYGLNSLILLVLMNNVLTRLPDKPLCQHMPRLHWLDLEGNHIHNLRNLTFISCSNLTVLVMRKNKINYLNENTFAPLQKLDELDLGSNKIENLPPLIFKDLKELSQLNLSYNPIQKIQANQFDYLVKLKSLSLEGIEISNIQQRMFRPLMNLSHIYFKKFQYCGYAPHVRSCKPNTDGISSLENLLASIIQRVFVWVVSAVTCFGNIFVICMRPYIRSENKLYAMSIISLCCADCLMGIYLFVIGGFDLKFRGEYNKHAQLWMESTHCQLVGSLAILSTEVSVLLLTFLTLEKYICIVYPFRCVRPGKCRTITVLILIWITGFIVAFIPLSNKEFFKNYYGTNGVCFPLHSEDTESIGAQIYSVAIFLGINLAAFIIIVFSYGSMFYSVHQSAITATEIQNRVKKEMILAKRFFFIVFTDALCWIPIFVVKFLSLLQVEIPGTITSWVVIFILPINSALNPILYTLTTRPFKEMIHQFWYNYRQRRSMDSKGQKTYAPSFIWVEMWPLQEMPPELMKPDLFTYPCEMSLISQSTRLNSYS
# T2: human RXFP3 (human, UniProt Q9NSD7 1-469)
# T2 sequence (looked up): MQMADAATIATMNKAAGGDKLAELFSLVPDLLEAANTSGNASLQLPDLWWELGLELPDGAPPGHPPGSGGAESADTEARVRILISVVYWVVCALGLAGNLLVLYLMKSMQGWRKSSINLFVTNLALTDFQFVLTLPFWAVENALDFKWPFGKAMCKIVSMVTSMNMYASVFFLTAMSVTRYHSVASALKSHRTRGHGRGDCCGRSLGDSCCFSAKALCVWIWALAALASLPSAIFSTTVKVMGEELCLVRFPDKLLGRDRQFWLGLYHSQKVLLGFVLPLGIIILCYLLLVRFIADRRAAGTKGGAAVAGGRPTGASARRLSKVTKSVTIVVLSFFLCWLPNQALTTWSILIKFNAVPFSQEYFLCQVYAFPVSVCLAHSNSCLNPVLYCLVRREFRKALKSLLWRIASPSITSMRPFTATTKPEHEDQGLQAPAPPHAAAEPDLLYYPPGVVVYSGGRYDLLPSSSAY
# T3: human RXFP1 (human, UniProt Q9HBX9 1-757)
# T3 sequence (looked up): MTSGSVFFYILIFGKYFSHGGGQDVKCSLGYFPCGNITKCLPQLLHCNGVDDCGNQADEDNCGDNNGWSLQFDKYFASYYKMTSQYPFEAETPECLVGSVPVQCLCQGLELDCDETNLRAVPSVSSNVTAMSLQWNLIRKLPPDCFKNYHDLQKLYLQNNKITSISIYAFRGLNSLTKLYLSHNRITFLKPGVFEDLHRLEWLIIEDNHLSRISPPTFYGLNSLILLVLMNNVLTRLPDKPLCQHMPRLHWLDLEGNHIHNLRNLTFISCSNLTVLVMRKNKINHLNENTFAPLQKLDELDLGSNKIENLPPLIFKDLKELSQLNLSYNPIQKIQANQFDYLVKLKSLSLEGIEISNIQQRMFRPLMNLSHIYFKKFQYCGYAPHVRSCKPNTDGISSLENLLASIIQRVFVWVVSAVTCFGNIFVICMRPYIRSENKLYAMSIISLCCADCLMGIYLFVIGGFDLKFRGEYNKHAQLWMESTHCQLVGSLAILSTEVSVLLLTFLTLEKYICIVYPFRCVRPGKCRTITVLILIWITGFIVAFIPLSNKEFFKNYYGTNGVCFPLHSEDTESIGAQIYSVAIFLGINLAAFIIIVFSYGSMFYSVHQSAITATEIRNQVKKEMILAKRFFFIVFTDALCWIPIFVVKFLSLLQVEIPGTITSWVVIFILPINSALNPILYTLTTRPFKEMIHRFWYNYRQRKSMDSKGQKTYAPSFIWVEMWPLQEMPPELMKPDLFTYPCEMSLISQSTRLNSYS
# Assays:
# Experiment in all cases: cell-based or functional assay
# cynomolgus monkey RXFP1 = molecular target: T1, cynomolgus monkey RXFP1
# human RXFP3 = molecular target: T2, human RXFP3
# human RXFP1 [1] = molecular target: T3, human RXFP1
# human RXFP1 [2] = molecular target: T3, human RXFP1; remark: listed apart in the source
binder,measurement,setting,value
"RLX-A-AQ1-20KPEG (ligand, pACF (para-acetylphenylalanine) at position 1 of the A chain, linked to a 20 kDA PEG via an oxime linkage) chain 1: XLYSALANKCCHVGCTKRSLARFC chain 2: ASWMEEVIKLCGRELVRAQIAICGMSTWS","Potency Ratio (RLX-A-AQ1-20KPEG/WT-RLX), cAMP assay, cyno RXFP1/CHO-K1 cells",cynomolgus monkey RXFP1,33 fold
same,"RLX-A-AQ1-20KPEG Potency Ratio (hRXFP 1-1.0), cAMP assay",cynomolgus monkey RXFP1,1.6 ratio
same,"cAMP Assay EC50 (nM), cyno RXFP1/CHO-K1 cells",cynomolgus monkey RXFP1,1.97 nM
same,"cAMP Assay EC50 (nM), inhibition of forskolin-induced cAMP, human RXFP3/CHO-K1 cells",human RXFP3,> 3000 nM
same,"Functional Assay Raw EC50 Values [ng/mL]; cAMP increase in THP-1 cells, 11/5/2010",human RXFP1 [1],38 ng/mL
same,In vitro Activity Fold Loss,human RXFP1 [2],12 fold

# From patent publication US20240189392A1 (AMBRX, published 2024)
